Data reported in PMC11002876, “KcsA-Kv1.x chimeras with complete ligand-binding sites provide improved predictivity for screening selective Kv1.x blockers” (The Journal of Biological Chemistry, 2024).

How the values were obtained:
[1] = biological target: KcsA-Kv1.3 turret-filter chimera (Streptomyces lividans | human); assay: ELISA
[2] = biological target: KcsA-Kv1.3 turret-only chimera (Streptomyces lividans | human); assay: ELISA
[3] = tested on: human Kv1.3 channel (hKv1.3); assay: Whole-cell patch-clamp of phage-displayed toxins, hKv1.3 in human lymphocytes; format: cell-based; settings: perfusion concentration; phage-displayed toxin; experimentally titrated; N = 3
Experimental: Human Kv1.3 currents were recorded from activated peripheral blood mononuclear cells (see below) 3 to 4 days after activation. Heparinized human peripheral venous blood was obtained from healthy volunteers. Mononuclear cells were separated through Histopaque-1077 density gradient centrifugation. Collected cells were washed twice with Ca^2+- and Mg^2+-free Hanks’ solution containing 25 mM Hepes buffer, pH 7.4. Cells were cultured for 3 to 4 days in 24-well culture plates in a 5% CO2 incubator at 37 °C, in RPMI 1640 medium supplemented with 10% fetal calf serum (Sigma-Aldrich), 100 μg/ml penicillin, 100 μg/ml streptomycin, and 2 mM L-glutamine (density, 0.5 × 10^6 cells per ml). Phytohemagglutinin A (Sigma-Aldrich) was added to the medium at 10 μg/ml to amplify the Kv1.3 expression. Cells were washed gently twice with 2 ml of ECS for the patch-clamp experiments.
Conventional whole-cell patch-clamp electrophysiology was used to record ionic currents. Micropipettes were pulled from GC150F-7.5 borosilicate capillaries (Harvard Apparatus) with tip diameters between 0.5 and 1 μm resulting in a tip resistance of 2 to 8 MΩ in the extracellular (bath) solution. All measurements were carried out by using Axopatch 200B amplifier connected to a personal computer using Axon Digidata 1550A data acquisition hardware and Pclamp10.7 software (https://support.moleculardevices.com/s/article/Axon-pCLAMP-10-Electrophysiology-Data-Acquisition-Analysis-Software-Download-Page). The holding potential was −120 mV. Records were discarded when leak at the holding potential was >10% of peak current at the test potential. Experiments were performed at room temperature (20–24 °C). Before analysis, whole-cell current traces were corrected for ohmic leakage and digitally filtered with a three-point boxcar smoothing filter.
Solutions: all salts and components of the solutions were purchased from Sigma Aldrich. The extracellular (bath) solution (ECS) contained 145 mM NaCl, 5 mM KCl, 2.5 mM CaCl2, 1 mM MgCl2, 10 mM Hepes, and 5.5 mM glucose (pH 7.35 with NaOH), while the intracellular (pipette) solution (ICS) contained 140 mM KF, 2 mM MgCl2, 1 mM CaCl2, 11 mM EGTA, and 10 mM Hepes (pH 7.22 with KOH). The osmolarity of the ECS and ICS were 302 mOsM.
Native peptides, phage-expressed peptides, and positive controls used for them were dissolved in ECS supplemented with 0.1 mg/ml bovine serum albumin (BSA; Sigma-Aldrich Hungary). Bath perfusion around the measured cell with different extracellular solutions was achieved using a gravity flow micro perfusion system using a rate of 0.5 ml/min. Excess fluid was removed continuously.
Voltage protocols: For measurement of Kv1.1 to 1.3 currents, voltage steps to +50 mV were applied from a holding potential of −120 mV and the peak current was measured every 15 s. For Kv1.3 currents, 15-ms-long depolarizing pulses were applied. For Kv1.1, 50-ms-long–activating stimuli were used. Kv1.2 currents were evoked by 200-ms-long pulses. […] The remaining current fraction at a given molar concentration was calculated as I/I0, where I0 is the peak current in the absence and I is the peak current at equilibrium block or […] after ∼2 min perfusion by the investigated peptide/phage.
Phage display test solutions were prepared according to routine phage display protocols ([62]). Phosphorylated and annealed oligonucleotides encoding the peptide construct were ligated into linearized pAS62 phagemid vector (https://patents.google.com/patent/WO2022144560A1/en) at a vector/insert ratio of 1:3. The final phagemid construct harbored a signal sequence followed by the peptide of interest, a linker sequence ([…]), and the C-terminal part of the P3 coat protein (amino acids: 216-424 of NP_510891.1). Chemically competent XL1-Blue E. coli cells (2022249, Agilent) were transformed with the ligation product and then streaked onto ampicillin (100 μg/ml) containing LB/Amp plates and incubated for 16 h at 37 °C.

[4] = biological target: KcsA-Kv1.1 turret-filter chimera (Streptomyces lividans | human); assay: ELISA
[5] = biological target: KcsA-Kv1.1 turret-only chimera (Streptomyces lividans | human); assay: ELISA
[6] = biological target: KcsA-Kv1.2 turret-filter chimera (Streptomyces lividans | human); assay: ELISA
[7] = biological target: KcsA-Kv1.2 turret-only chimera (Streptomyces lividans | human); assay: ELISA
[8] = biological target: KcsA-Kv1.1 turret-filter chimera (Streptomyces lividans | human); assay: SDS-PAGE and western blot; purified proteins, 0.5 ug/well, Tris-Glycine gradient gel, 200 V 55 min; western blot with anti-His antibody; monomers and tetramers by migration
[9] = biological target: KcsA-Kv1.1 turret-filter chimera (Streptomyces lividans | human); assay: native gel or EMSA
[10] = biological target: KcsA-Kv1.1 turret-only chimera (Streptomyces lividans | human); assay: SDS-PAGE and western blot; purified proteins, 0.5 ug/well, Tris-Glycine gradient gel, 200 V 55 min; western blot with anti-His antibody; monomers and tetramers by migration
[11] = biological target: KcsA-Kv1.1 turret-only chimera (Streptomyces lividans | human); assay: native gel or EMSA
[12] = biological target: KcsA-Kv1.2 turret-filter chimera (Streptomyces lividans | human); assay: native gel or EMSA
[13] = biological target: KcsA-Kv1.2 turret-only chimera (Streptomyces lividans | human); assay: native gel or EMSA
[14] = biological target: KcsA-Kv1.3 turret-filter chimera (Streptomyces lividans | human); assay: SDS-PAGE and western blot; purified proteins, 0.5 ug/well, Tris-Glycine gradient gel, 200 V 55 min; western blot with anti-His antibody; monomers and tetramers by migration
[15] = biological target: KcsA-Kv1.3 turret-filter chimera (Streptomyces lividans | human); assay: native gel or EMSA
[16] = biological target: KcsA-Kv1.3 turret-only chimera (Streptomyces lividans | human); assay: SDS-PAGE and western blot; purified proteins, 0.5 ug/well, Tris-Glycine gradient gel, 200 V 55 min; western blot with anti-His antibody; monomers and tetramers by migration
[17] = biological target: KcsA-Kv1.3 turret-only chimera (Streptomyces lividans | human); assay: native gel or EMSA
[18] = biological target: human Kv1.3 voltage-gated potassium channel on activated human lymphocytes (human (endogenous in peripheral blood mononuclear cells)) (UniProt P22001)
[19] = biological target: human Kv1.3 voltage-gated potassium channel on activated human lymphocytes (human (endogenous in peripheral blood mononuclear cells)) (UniProt P22001); remark: listed apart in the source

human Kv1.3 voltage-gated potassium channel on activated human lymphocytes (human (endogenous in peripheral blood mononuclear cells)), sequence (P22001 whole entry): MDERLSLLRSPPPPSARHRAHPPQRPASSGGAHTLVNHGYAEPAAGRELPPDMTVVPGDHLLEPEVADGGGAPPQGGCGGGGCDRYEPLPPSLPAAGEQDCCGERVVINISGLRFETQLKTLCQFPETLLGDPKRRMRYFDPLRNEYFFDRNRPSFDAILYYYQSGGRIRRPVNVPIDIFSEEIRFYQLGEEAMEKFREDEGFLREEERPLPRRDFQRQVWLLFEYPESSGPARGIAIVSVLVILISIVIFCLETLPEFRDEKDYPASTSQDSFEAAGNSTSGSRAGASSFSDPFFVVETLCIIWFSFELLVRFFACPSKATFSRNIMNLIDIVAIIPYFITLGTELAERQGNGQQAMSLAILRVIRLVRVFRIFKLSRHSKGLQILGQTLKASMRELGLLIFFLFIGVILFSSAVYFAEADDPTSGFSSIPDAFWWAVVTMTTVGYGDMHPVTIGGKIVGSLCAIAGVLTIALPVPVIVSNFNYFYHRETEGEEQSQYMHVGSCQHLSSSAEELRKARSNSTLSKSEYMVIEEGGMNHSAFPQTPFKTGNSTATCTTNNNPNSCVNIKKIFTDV

Hongotoxin-1, synthetic peptide (from UniProt P59847 1-39)
IC50 [1]: 0.108 nM
IC50 [2]: 0.671 nM

KTX1-phage: KTX1 fused to the P3 coat protein of M13 phage with an eight amino acid linker (GVEINVKCSGSPQCLKPCKDAGMRFGKCMNRKCHCTPK; not fully specified; left off: M13 P3 coat protein C-terminal part (amino acids 216-424 of NP_510891.1) behind the linker GSASSATR, C-terminal, kept)
phage concentration giving approximate 50% block of hKv1.3 current [3]: ~3.6 × 10^13 particle/ml

Kaliotoxin-1, synthetic peptide (from UniProt P24662 1-38)
IC50 [4]: 1.49 nM
IC50 [5]: 1.27 nM
IC50 [1]: 98.2 nM
IC50 [6]: 205 nM
IC50 [7]: 0.185 nM
IC50 [2]: 0.416 nM

KcsA-Kv1.1 turret-filter chimera
stoichiometry N [8]: 4
stoichiometry N [9]: 4

KcsA-Kv1.1 turret-only chimera
stoichiometry N [10]: 4
stoichiometry N [11]: 4

KcsA-Kv1.2 turret-filter chimera
stoichiometry N [12]: 4

KcsA-Kv1.2 turret-only chimera
stoichiometry N [13]: 4

KcsA-Kv1.3 turret-filter chimera
stoichiometry N [14]: 4
stoichiometry N [15]: 4

KcsA-Kv1.3 turret-only chimera
stoichiometry N [16]: 4
stoichiometry N [17]: 4

Stichodactyla toxin ShK, synthetic peptide
IC50 [4]: 0.271 nM
IC50 [5]: 0.317 nM
IC50 [6]: 15.9 nM
IC50 [7]: 0.07 nM

Vm24 toxin displayed on M13 phage as a fusion to the P3 coat protein (peptide)
phage concentration that gave a similar (50-70%) inhibition of the hKv1.3 current, whole-cell patch-clamp on human lymphocytes [18]: 6e+10 particle/ml
estimated relative potency calculated from the phage concentration required to reach 50% blocking effect on the Kv1.3 current (relative potency) [19]: 1

Vm24 toxin, synthetic peptide
IC50 [1]: 0.036 nM
IC50 [2]: 0.577 nM

VSCTGSKDCYAPCRKQTGCPNAKCINKSCKCYGC [Maurotoxin, synthetic peptide]
IC50 [4]: > 1000 nM
IC50 [5]: > 1000 nM
IC50 [6]: 0.129 nM
IC50 [7]: > 1000 nM
